{
  "source": "patent US20120121579A1",
  "about": "“TREATMENT OF ONCOSTATIN M RECEPTOR BETA MEDIATED HEART FAILURE” (MAX-PLANCK-GESELLSCHAFT ZUR FORDERUNG DER WISSENSCHAFTEN …, priority 2009, published 2012)",
  "molecules": {"B1": {"name": "OSM: mouse oncostatin M, recombinant cytokine obtained from Sigma (protein)", "chain": "ANRGCSNSSSQLLSQLQNQANLTGNTESLLEPYIRLQNLNTPDLRAACTQHSVAFPSEDTLRQLSKPHFLSTVYTTLDRVLYQLDALRQKFLKTPAFPKLDSARHNILGIRNNVFCMARLLNHSLEIPEPTQTDSGASRSTTTPDVFNTKIGSCGFLWGYHRFMGSVGRVFREWDDGSTRSRR"}, "B2": {"name": "cardiotrophin: recombinant mouse cytokine of the interleukin-6 class (protein, UniProt Q60753 1-203, looked up)", "Cardiotrophin-1": "MSQREGSLEDHQTDSSISFLPHLEAKIRQTHNLARLLTKYAEQLLEEYVQQQGEPFGLPGFSPPRLPLAGLSGPAPSHAGLPVSERLRQDAAALSVLPALLDAVRRRQAELNPRAPRLLRSLEDAARQVRALGAAVETVLAALGAAARGPGPEPVTVATLFTANSTAGIFSAKVLGFHVCGLYGEWVSRTEGDLGQLVPGGVA"}, "B3": {"name": "11-6: interleukin-6, recombinant mouse cytokine (protein, UniProt P08505 25-211, looked up)", "Interleukin-6": "FPTSQVRRGDFTEDTTPNRPVYTTSQVGGLITHVLWEIVEMRKELCNGNSDCMNNDDALAENNLKLPEIQRNDGCYQTGYNQEICLLKISSGLLEYHSYLEYMKNNLKDNKKDKARVLQRDTETLIHIFNQEVKDLHKIVLPTPISNALLTDKLESQKEWLRTKTIQFILKSLEEFLKVTLRSTRQT"}},
  "key": {"cardiomyocytes [1]": {"test_system": "cardiomyocytes", "experiment": "Morphology of cultured adult cardiomyocytes: lengthening, sarcomeres, α-SM actin, cell growth (phase contrast, immunostaining)", "type": "cell-based, rat", "conditions": "for inhibition of OSM-induced cell lengthening: OSM-stimulated cardiomyocytes, serum-free", "description": "(§1) MCP-1 transgenic animals, intraperitoneally injection of oncostatin M and culture of adult cardiomyocytes. The generation of transgenic mice (from FVB/N mice) with cardiac restricted overexpression of monocyte chemotactic protein-1 has been previously described (Kolattukudy et al. 1998). 6 months old FVB mice were injected intraperitoneally twice daily with a volume of 0.2 ml of phosphate buffered saline containing 5% fetal calf serum without (CON) or with 60 ng oncostatin M (OSM) per gram of animal for fourteen days. Ventricular cardiac myocytes of 6-mo-old rats were isolated as previously described (Kubin et al. 1999). Myocytes were plated at a density of 1.5×10^4 cells/cm^2 on laminin-coated (10 μg/ml; Sigma) chamber slides or 6 well dishes (Nunc) in basic medium. Myocytes were allowed to recover for 2 days in 2% fetal calf serum (FCS). Thereafter, basic medium, FCS, 50 ng/ml insulin-like growth factor-1 or 20 ng/ml of cytokines were added as indicated. Media were replaced every other day. UO126 (Cell Signaling Technology) was added 1 h prior to stimulation. All experiments were performed in duplicate and constantly treated with 10 μM 1-(β-D-arabinofuranosyl)cytosine to prevent nonmyocyte growth. Determination of secreted ANP by Western Blot was performed after ultrafiltration (Millipore).\n(§2) Phase-contrast micrographs, immunocytochemistry and fluorescence microscopy. Phase-contrast micrographs were taken with a 20× lens. For immunocytochemistry and fluorescence microscopy samples were processed as previously described (Kubin et al. 1999)."}, "Erk1/2": {"test_system": "Erk1/2", "experiment": "OSM-induced Erk1/2 activation in cultured cardiomyocytes (Western blot)", "type": "cell-based, rat", "conditions": "after 10 minutes of OSM", "description": "as §1, with “Determination of secreted ANP by Western Blot was performed after ultrafiltration (Millipore).” left out\n(§3) Preparation of Protein Extracts and Western Blot Analysis. […] Immunoreactive proteins were visualized on the VersaDoc (BioRad) and analyzed using the QuantityOne software (BioRad)."}, "[2]": {"test_system": "OSM treated cardiomyocytes", "experiment": "Inhibition of OSM-induced FGP in cultured cardiomyocytes (Western blot of 95 kDa B-Raf, α-SM actin, destrin, secreted ANP)", "type": "cell-based, rat", "conditions": "after 10 days of OSM", "description": "as §1, with “Determination of secreted ANP by Western Blot was performed after ultrafiltration (Millipore).” left out\nas §3"}, "cardiomyocytes [3]": {"test_system": "cardiomyocytes", "experiment": "Cytokine-induced FGP / dedifferentiation markers in cultured adult cardiomyocytes (Western blot)", "type": "cell-based, rat", "conditions": "20 ng/ml of cytokines, 10d of serum-free culture", "description": "as §1\n(§4) Preparation of Protein Extracts and Western Blot Analysis. Tissue Samples were Sonicated in Lysis buffer (0.1M Tris-HCl, 10% sodium dodecylsulfate (SDS), 10 mM ethylenediamine tetraacetic acid, 40 mM dithiothreitol (DTT); pH 8.0) containing inhibitors as previously described (Vogel et al. 2006). Cultures were washed twice with PBS and harvested by scraping in lysis buffer. After heating for 1 minute at 99° C. debris was removed by centrifugation for 2 min at 14000 g. Twenty micrograms of protein extracts were separated on 4%-12% SDS-PAGE gradient gels and processed as previously described (Vogel et al. 2006). Immunoreactive proteins were visualized on the VersaDoc (BioRad) and analyzed using the QuantityOne software (BioRad)."}, "gp130/Raf/Erk axis": {"test_system": "gp130/Raf/Erk axis", "experiment": "Intraperitoneal oncostatin M treatment of mice, Western blot and immunostaining of cardiac tissue", "type": "in vivo, mouse", "description": "as §1, §4, §2"}, "[4]": {"conditions": "60 ng OSM per gram i.p. twice daily for fourteen days"}},
  "note": "Entries after “also recorded” stand apart in the source; their conditions may differ.",
  "data": [
    {"molecule": "N#CC(=C(/N)Sc1ccccc1N)/C(C#N)=C(/N)Sc1ccccc1N", "note": "[UO126]", "values": [
      {"measurement": "inhibition of OSM-induced cell lengthening", "setting": "cardiomyocytes [1]; 8 days", "value": "completely abolished OSM-induced lengthening; also recorded: abolishment of cell lengthening"},
      {"measurement": "inhibition of OSM-induced cell lengthening", "setting": "cardiomyocytes [1]; 8 days, listed as UO", "value": "abolishes this effect"},
      {"measurement": "inhibition of OSM-induced Erk1/2 activation (phosphorylation)", "setting": "Erk1/2", "value": "abolished the activation of Erk1/2; also recorded: inhibition of Erk1/2 activation"},
      {"measurement": "inhibition of OSM-induced re-expression of α-SM actin, the 95 kDa B-Raf and destrin (FGP)", "setting": "[2]", "value": "complete inhibition of the reexpression; also recorded: loss of re-expression of α-SM actin, the 95 kDa B-Raf and destrin; also recorded: abolishment of cell lengthening, the reexpression of ANP, α-SM actin and the 95 kDa B-Raf isoform"},
      {"measurement": "secretion of ANP by OSM-treated cardiomyocytes", "setting": "[2]", "value": "loss of secreted atrial natriuretic peptide; also recorded: reduced secretion of ANP"}
    ]},
    {"molecule": "TNF-α", "values": [
      {"measurement": "induction of FGP / dedifferentiation (re-expression of the 95 kDa B-Raf, α-SM actin and destrin)", "setting": "cardiomyocytes [3]", "value": "neither TNF-α nor MCP-1 induced FGP"}
    ]},
    {"molecule": "MCP-1: monocyte chemotactic protein-1, recombinant mouse protein", "values": [
      {"measurement": "induction of FGP / dedifferentiation (re-expression of the 95 kDa B-Raf, α-SM actin and destrin)", "setting": "cardiomyocytes [3]", "value": "neither TNF-α nor MCP-1 induced FGP"}
    ]},
    {"molecule": "B1", "values": [
      {"measurement": "induction of FGP / dedifferentiation (re-expression of the 95 kDa B-Raf, α-SM actin and destrin)", "setting": "cardiomyocytes [3]", "value": "induces more potently FGP than LIF"},
      {"measurement": "P-Erk1/2 in cardiac tissue", "setting": "gp130/Raf/Erk axis; [4]", "value": "Moderate increases"},
      {"measurement": "amounts of B-Raf isoforms in cardiac tissue", "setting": "gp130/Raf/Erk axis; [4]", "value": "increased amounts of all B-Raf isoforms"},
      {"measurement": "level of LIF in cardiac tissue", "setting": "gp130/Raf/Erk axis; [4]", "value": "did not change; also recorded: No changes"},
      {"measurement": "level of α-SM actin, destrin and ANP in myocardial tissue", "setting": "gp130/Raf/Erk axis; [4]", "value": "increased level"},
      {"measurement": "phosphorylation level of the serine residue 782 of gp130", "setting": "gp130/Raf/Erk axis; [4]", "value": "significant increases"},
      {"measurement": "amount of OSMRβ in cardiac tissue", "setting": "gp130/Raf/Erk axis; 60 ng OSM per gram i.p. twice daily for fourteen days, 6 months old mice", "value": "significant increases"},
      {"measurement": "heart failure phenotype after injection into mice", "setting": "gp130/Raf/Erk axis; injection of OSM into mice", "value": "resulted into the heart failure phenotype of DCM"},
      {"measurement": "re-expression of α-SM actin (immunostaining)", "setting": "cardiomyocytes [1]; 2% serum, 12 days", "value": "massive re-expression of α-SM actin throughout the myocyte"},
      {"measurement": "loss of sarcomeres", "setting": "cardiomyocytes [1]; 2% serum, 12 days, versus 2% serum treated controls", "value": "massive loss of sarcomeres"},
      {"measurement": "remodelling of cardiomyocytes (cell lengthening)", "setting": "cardiomyocytes [1]; absence of serum, 8 days", "value": "remodelling of cardiomyocytes primarily visible in cell lengthening"}
    ]},
    {"molecule": "B2", "values": [
      {"measurement": "induction of FGP / dedifferentiation (re-expression of the 95 kDa B-Raf, α-SM actin and destrin)", "setting": "cardiomyocytes [3]", "value": "only a limited capacity to induce dedifferentiation"}
    ]},
    {"molecule": "B3", "values": [
      {"measurement": "induction of FGP / dedifferentiation (re-expression of the 95 kDa B-Raf, α-SM actin and destrin)", "setting": "cardiomyocytes [3]", "value": "only a limited capacity to induce dedifferentiation"}
    ]}
  ]
}
